Test results published in paper doi:10.1101/2025.05.28.656462 (bioRxiv, 2025).

Target: the molecule itself
Experiment: SEC

B1: full-length Pseudomonas aeruginosa bacteriophytochrome PaBphP, wild type (FL-PaBphP-D) (natural protein)
chain: MTSITPVTLANCEDEPIHVPGAIQPHGALVTLRADGMVLAASENIQALLGFVASPGSYLTQEQVGPEVLRMLEEGLTGNGPWSNSVETRIGEHLFDVIGHSYKEVFYLEFEIRTADTLSITSFTLNAQRIIAQVQLHNDTASLLSNVTDELRRMTGYDRVMAYRFRHDDSGEVVAESRREDLESYLGQRYPASDIPAQARRLYIQNPIRLIADVAYTPMRVFPALNPETNESFDLSYSVLRSVSPIHCEYLTNMGVRASMSISIVVGGKLWGLFSCHHMSPKLIPYPVRMSFQIFSQVCSAIVERLEQGRIAELLRVSTERRLALARRARDADDLFGALAHPDDGIAALIPCDGALVMLGGRTLSIRGDFERQAGNVLQRLQRDPERDIYHTDNWPQPSEDSPDGGDCCGVLAIRFHRQESGWIFWFRHEEVHRIRWGGKPEKLLTIGPSGPRLTPRGSFEAWEEVVRGHSTPWSETDLAIAEKLRLDLMELCLNHAAEVDRMRQRLIAVLGHDLRNPLQSISMAAALLSSSDTRTTELRQHISASSSRMERLVSQILDMSRLQSGIGLTVNPVDTDVSQLVRQIVCETDVAYPGLVIEIAIDPQVRAVVDPDRYAQVAANLLSNARHHGLPGRPVLVTLTRQGDEVCLSVLNETSGLSEAQLANLFEPFKRESADNQRNRNGLGIGLYISQAIAQAHQGRIDVDCRDDVITFCLRLPVRQAETGSSS
- stoichiometry N: 2
